Data reported in patent US20260183437A1, “VHH ANTIBODY CONJUGATES WITH HETEROARYL CHELATORS” (ABDERA THERAPEUTICS INC., priority 2022, published 2026).
Numbering of substitutions follows the chain as printed.

Columns and labels:
[1] = Pharmacokinetics of VHH-Fc variants in Tg32 (humanized FcRn) mice; format: in vivo; details: IV 3 mg/kg, HER2 VHH-Fc study (Table 6)
Protocol: Twenty eight (28) 8 week old male B6. Cg-Fcgrt^tm1Der Tg(FCGRT)32Dcr/DcrJ (Tg32 hom, JAX stock #014565) mice were distributed into 7 groups with 4 mice per group as outlined in the table. […] (See, e.g., Avery L B et al. “Utility of a human FcRn transgenic mouse model in drug discovery for early assessment and prediction of human pharmacokinetics of monoclonal antibodies.” MAbs. 2016 August-September; 8(6):1064-78). On Day 0, body weights were measured and test articles were IV administered to all mice at 3 mg/kg and 5 mL/kg. 25 μL blood samples were collected from each mouse at time intervals. The blood samples were collected into 1 μL K3EDTA, processed to plasma, diluted 1/10 in 50% glycerol in PBS, transferred into specialized 96 well storage plates, and stored at −20° C. All plasma samples were assessed via a hIgG ELISA chosen for its high sensitivity for all seven test articles.

FcγRIIb/c = target: T1, FcγRIIb/c (Homo sapiens, UniProt P31994); assay: FcγR affinity by biolayer interferometry (Octet Red96e); format: binding
T1 construct: purchased Acro Biosystems
T1 sequence (P31994 43-310): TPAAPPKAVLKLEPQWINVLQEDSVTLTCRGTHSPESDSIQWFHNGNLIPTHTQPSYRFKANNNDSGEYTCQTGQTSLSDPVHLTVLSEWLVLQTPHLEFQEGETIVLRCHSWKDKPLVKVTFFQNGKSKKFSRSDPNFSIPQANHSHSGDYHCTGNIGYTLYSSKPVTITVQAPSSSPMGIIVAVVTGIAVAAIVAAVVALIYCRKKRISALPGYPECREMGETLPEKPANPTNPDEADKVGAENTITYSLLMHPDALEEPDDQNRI
Protocol: (§1) VHH-Fcs were also tested for affinity to FcγRs by biolayer interferometry using the Octet Red96e platform. Each cycle is performed with orbital shake speed of 1,000 rpm. Streptavidin (SA) biosensors (Sartorius 18-5019) were rehydrated for 10 mins using kinetics buffer (PBS+0.1% BSA+0.02% Tween-20). Biotinylated-FcγRs (Acro Biosystems) were then loaded for 40-100 s onto SA biosensors at concentrations ranging between 1-5 μg/mL diluted in PBS. VHH-Fcs were serially diluted 1:2 in sample buffer (PBS+0.02% Tween-20) with starting concentrations ranging between 5000 nM to 37.5 nM. Loaded biosensors were then associated with VHH-Fcs for 60-120 s. VHH-Fc dissociation was measured for 30-900 s in sample buffer. Bound VHH-Fcs were then removed using 3 cycles of 5 s regeneration buffer (150 mM NaCl, 300 mM Sodium Citrate) and 5 s sample buffer. The data was analyzed either using a globally-fitted 1:1 Langmuir binding model (FcγRI) or steady state analysis (Octet software version HT v11.1).

FcγRIIIa (V176) = target: T2, FcγRIIIa (V176) (Homo sapiens, UniProt P08637, F176V); assay: as above; format: binding
T2 construct: purchased Acro Biosystems
Protocol: as §1

FcγRI = target: T3, FcγRI (Homo sapiens, UniProt P12314); assay: as above; format: binding
T3 construct: purchased Acro Biosystems
Protocol: as §1

FcγRIIa (R167) = target: T4, FcγRIIa (R167) (Homo sapiens, UniProt P12318, H167R); assay: as above; format: binding
T4 construct: purchased Acro Biosystems
T4 sequence (P12318 36-218 H167R limits assumed): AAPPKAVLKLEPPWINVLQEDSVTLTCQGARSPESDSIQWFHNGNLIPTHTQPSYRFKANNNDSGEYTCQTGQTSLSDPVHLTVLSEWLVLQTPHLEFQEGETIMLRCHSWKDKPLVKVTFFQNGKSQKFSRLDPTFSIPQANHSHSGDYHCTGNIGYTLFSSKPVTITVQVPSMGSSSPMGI
Protocol: as §1

FcγRIIa (H167) = target: T5, FcγRIIa (H167) (Homo sapiens, UniProt P12318); assay: as above; format: binding
T5 construct: purchased Acro Biosystems
T5 sequence (P12318 36-218 limits assumed): T4 sequence (P12318 36-218 H167R limits assumed) with R132H
Protocol: as §1

FcγRIIIa (F176) = target: T6, FcγRIIIa (F176) (Homo sapiens, UniProt P08637); assay: as above; format: binding
T6 construct: purchased Acro Biosystems
Protocol: as §1

SHP-77 = assay: ABC (Antibody Binding Capacity) assay, receptor density; format: cell-based
Protocol: (§2) In order to test efficacy of the immunoconjugate binding with respect to target density receptor density was measured on target positive cell lines. Target density was measured using the ABC (Antibody Binding Capacity) assay. Cancer cells expressing the target of interest, as well as a negative control cell line, were harvested with cell dissociation buffer, seeded at about 5×10^4 cells per well into 96-well V bottom plate (Sarstedt 82.1583.001). Cells were tested for receptor expression using QuantiBRITE PE beads (BD Cat #340495) and a PE-conjugated anti-hu IgG (Biolegend clone HP6017) following the manufacturers' instructions. In brief, VHH-Fc and isotype control antibodies were prepared at suitable saturating concentrations based on previous experiments. Antibody sample dilutions were incubated with the panel of cell lines on ice for 1 hour. Cells were washed twice with 1% FBS in 1×PBS (FACS buffer), centrifuged at 400 G for 4 min. Cells were then incubated with 4 μg/mL mouse PE-conjugated anti-hu and DAPI (1:1000) for 30 minutes on ice. Cells were washed twice with FACS buffer, centrifuged at 400 G for 4 minutes and resuspended in FACS buffer. Fluorescence intensity on the PE channel was measured on the iQue Screener platform, and data were processed with ForeCyt software. The amount of PE signal generated from the different primary antibody was then fit to a standard curve based off of known PE molecules/Quantibrite bead samples to determine the number of antibody-binding sites per cell. Relative antibody binding sites correlate to the number of antigens or receptors on cell surface.

HEK-DLL3 = assay: as above; format: cell-based
Protocol: as §2

HEK293-6E = assay: as above; format: cell-based
Protocol: as §2

HCT-116 = assay: as above; format: cell-based
Protocol: as §2

BT474 = assay: as above; format: cell-based
Protocol: as §2

T3 sequence (P12314 16-374): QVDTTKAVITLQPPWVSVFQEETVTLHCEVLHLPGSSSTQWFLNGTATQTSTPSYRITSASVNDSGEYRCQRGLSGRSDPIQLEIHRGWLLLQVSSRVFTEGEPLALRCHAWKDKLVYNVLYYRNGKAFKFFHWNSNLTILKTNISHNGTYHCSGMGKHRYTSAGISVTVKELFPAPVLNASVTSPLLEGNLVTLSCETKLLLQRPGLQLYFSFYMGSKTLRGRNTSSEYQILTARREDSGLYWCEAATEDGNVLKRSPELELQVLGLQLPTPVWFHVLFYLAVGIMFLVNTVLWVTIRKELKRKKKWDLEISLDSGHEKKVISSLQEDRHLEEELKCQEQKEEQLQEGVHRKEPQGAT
T2 sequence (P08637 17-208 F176V limits assumed): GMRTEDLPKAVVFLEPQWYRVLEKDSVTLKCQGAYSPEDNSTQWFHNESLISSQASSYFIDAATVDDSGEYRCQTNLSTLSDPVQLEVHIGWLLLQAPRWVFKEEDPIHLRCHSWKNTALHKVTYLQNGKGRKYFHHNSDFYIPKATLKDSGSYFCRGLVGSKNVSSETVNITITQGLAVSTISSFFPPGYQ
T6 sequence (P08637 17-208 limits assumed): as the sequence (P08637 17-208 F176V limits assumed) above, with V160F counted along it

With “H101: anti-HER2 VHH-Fc (2RS15d VHH, human IgG1 Fc); FcRn wt, Fc effector wt [Compound H101]” as the substance, how does the Clearance [1] read?
Its Clearance is 28.7 mL/day.

What about the Cmax [1] of the same substance?
The Cmax was 57.0 µg/mL.

And the “Terminal Half-Life” value [1]?
Its value is 166 h.

And the Kd (FcγRIIb/c)?
The Kd was 450 nM.

What about the Kd (FcγRIIIa (V176)) of the same substance?
Its Kd is 480 nM.

And the Kd (FcγRI)?
Its Kd is 1.01 nM.

What about the Kd (FcγRIIa (R167)) of the same substance?
Its Kd is 160 nM.

And the Kd (FcγRIIa (H167))?
Its Kd is 340 nM.

What about the Kd (FcγRIIIa (F176)) of the same substance?
The Kd was 1600 nM.

What about the “Estimated number of epitopes/cell” value (SHP-77) of the same substance?
The value was 572 epitopes/cell.

What about the “Estimated number of epitopes/cell” value (HEK-DLL3) of the same substance?
Its value is 1490 epitopes/cell.

And the “Estimated number of epitopes/cell” value (HEK293-6E)?
Its value is 1935 epitopes/cell.

And the “Estimated number of epitopes/cell” value (HCT-116)?
The value was 2604 epitopes/cell.

What about the “Estimated number of epitopes/cell” value (BT474) of the same substance?
The value was 401604 epitopes/cell.
